Source: patent publication JP2017222678A (dated 2017)

T1: ヒトTFPI (human tissue factor pathway inhibitor; American Diagnostica) (human, UniProt P10646 29-304, limits assumed)
T1 construct: Coated on plates (ELISA) or amine-coupled to a CM5 chip (Biacore); also called h-TFPI; hTFPI
T1 sequence (looked up): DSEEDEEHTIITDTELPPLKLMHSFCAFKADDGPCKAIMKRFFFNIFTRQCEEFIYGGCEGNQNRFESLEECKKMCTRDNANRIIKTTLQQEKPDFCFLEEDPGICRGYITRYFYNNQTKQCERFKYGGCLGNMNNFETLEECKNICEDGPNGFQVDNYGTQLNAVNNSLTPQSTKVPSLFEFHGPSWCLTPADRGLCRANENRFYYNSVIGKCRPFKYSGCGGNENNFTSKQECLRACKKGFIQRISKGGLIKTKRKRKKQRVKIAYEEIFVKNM

B1: TP-2G4 (Fab, V domains shown)
VH: QVQLVESGGGLVQPGGSLRLSCAASGFTFSSYAMTWVRQAPGKGLEWVSNISYSGSNTYYADSVKGRFTISRDNSKNTLYLQMNSLRAEDTAVYYCARVGYYYGFDYWGQGTLVTVSS
VL: DIELTQPPSVSVAPGQTARISCSGDALRKHYVYWYQQKPGQAPVLVIYGDNNRPSGIPERFSGSNSGNTATLTISGTQAEDEADYYCQSYDKPYPILVFGGGTKLTVLG
notes: HuCAL Gold human Fab from E. coli TG1
B2: TP-3B3 (Fab, V domains shown)
VH: QVQLVESGGGLVQPGGSLRLSCAASGFTFSSYGMHWVRQAPGKGLEWVSNISYMGSNTNYADSVKGRFTISRDNSKNTLYLQMNSLRAEDTAVYYCARGLFPGYFDYWGQGTLVTVSS
VL: DIELTQPASVSVAPGQTARISCSGDNLRSKYAHWYQQKPGQAPVLVIYGDNNRPSGIPERFSGSNSGNTATLTISGTQAEDEADYYCSAYAMGSSPVFGGGTKLTVLG
notes: as for B1
B3: TP-2E5 (Fab, V domains shown)
VH: QVQLQQSGPGLVKPSQTLSLTCAISGDSVSSNSAAWSWIRQSPGRGLEWLGMIFYRSKWNNDYAVSVKSRITINPDTSKNQFSLQLNSVTPEDTAVYYCARVNANGYYAYVDLWGQGTLVTVSS
VL: DIQMTQSPSSLSASVGDRVTITCRASQPIYNSLSWYQQKPGKAPKLLIYGVSNLQSGVPSRFSGSGSGTDFTLTISSLQPEDFAVYYCLQVDNLPITFGQGTKVEIKR
notes: as for B1
B4: TP-3A2 (Fab, V domains shown)
VH: QVQLVESGGGLVQPGGSLRLSCAASGFTFSNYYLSWVRQAPGKGLEWVSGISYNGSSTNYADSVKGRFTISRDNSKNTLYLQMNSLRAEDTAVYYCARMWRYSLGADSWGQGTLVTVSS
VL: DIELTQPPSVSVAPGQTARISCSGDNIGSRYAYWYQQKPGQAPVVVIYDDSDRPSGIPERFSGSNSGNTATLTISGTQAEDEADYYCAAYTFYARTVFGGGTKLTVLG
notes: as for B1
B5: TP-3A4 (Fab, V domains shown)
VH: QVQLVESGGGLVQPGGSLRLSCAASGFTFSSYWMHWVRQAPGKGLEWVSSISYDSSNTYYADSVKGRFTISRDNSKNTLYLQMNSLRAEDTAVYYCARYGGMDYWGQGTLVTVSS
VL: DIELTQPPSVSVAPGQTARISCSGDNLRDKYASWYQQKPGQAPVLVIYSKSERPSGIPERFSGSNSGNTATLTISGTQAEDEADYYCSSYTLNPNLNYVFGGGTKLTVLG
notes: as for B1
B6: TP-2G9 (Fab, V domains shown)
VH: QVQLVESGGGLVQPGGSLRLSCAASGFTFNSYAMTWVRQAPGKGLEWVSAIKSDGSNTYYADSVKGRFTISRDNSKNTLYLQMNSLRAEDTAVYYCARNDSGWFDVWGQGTLVTVSS
VL: DIALTQPASVSGSPGQSITISCTGTSSDLGGFNTVSWYQQHPGKAPKLMIYSVSSRPSGVSNRFSGSKSGNTASLTISGLQAEDEADYYCQSYDLNNLVFGGGTKLTVLG
notes: as for B1
B7: TP-3C1 (Fab, V domains shown)
VH: QVQLVESGGGLVQPGGSLRLSCAASGFTFSSYSMHWVRQAPGKGLEWVSGISYSSSFTYYADSVKGRFTISRDNSKNTLYLQMNSLRAEDTAVYYCARALGGGVDYWGQGTLVTVSS
VL: DIALTQPASVSGSPGQSITISCTGTSSDLGGFNTVSWYQQHPGKAPKLMIYSVSSRPSGVSNRFSGSKSGNTASLTISGLQAEDEADYYCQSYDLNNLVFGGGTKLTVLG
notes: HuCAL Gold human Fab from E. coli TG1; Shares its VL entry with TP-2G9 and its VH entry with TP-3F2, as the legends print it
B8: TP-2B9 (Fab, V domains shown)
VH: QVQLQQSGPGLVKPSQTLSLTCAISGDSVSSNSAAWGWIRQSPGRGLEWLGMIYHRSKWYNDYAVSVKSRITINPDTSKNQFSLQLNSVTPEDTAVYYCARYSSIGHMDYWGQGTLVTVSS
VL: DIQMTQSPSSLSASVGDRVTITCRASQSIRSYLAWYQQKPGKAPKLLIYKASNLQSGVPSRFSGSGSGTDFTLTISSLQPEDFAVYYCHQYSDSPVTFGQGTKVEIKR
notes: as for B1
B9: TP-2H10 (Fab, V domains shown)
VH: QVQLQQSGPGLVKPSQTLSLTCAISGDSVSSNGAAWGWIRQSPGRGLEWLGFIYRRSKWYNSYAVSVKSRITINPDTSKNQFSLQLNSVTPEDTAVYYCARQDGMGGMDSWGQGTLVTVSS
VL: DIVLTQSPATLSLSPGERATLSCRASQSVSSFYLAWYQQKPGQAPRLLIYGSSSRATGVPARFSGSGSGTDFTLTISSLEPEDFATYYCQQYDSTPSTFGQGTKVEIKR
notes: as for B1
B10: TP-2E3 (Fab, V domains shown)
VH: QVQLQQSGPGLVKPSQTLSLTCAISGDSVSSNSAAWGWIRQSPGRGLEWLGMIYYRSKWYNDYAVSVKSRITINPDTSKNQFSLQLNSVTPEDTAVYYCARVNQYTSSDYWGQGTLVTVSS
VL: DIALTQPASVSGSPGQSITISCTGTSSDIGGYNYVSWYQQHPGKAPKLMIYGVNYRPSGVSNRFSGSKSGNTASLTISGLQAEDEADYYCSSADKFTMSIVFGGGTKLTVLG
notes: as for B1
B11: TP-2G5 (Fab, V domains shown)
VH: QVQLQQSGPGLVKPSQTLSLTCAISGDSVSSNSAAWSWIRQSPGRGLEWLGFIYYRSKWYNDYAVSVKSRITINPDTSKNQFSLQLNSVTPEDTAVYYCARHNPDLGFDYWGQGTLVTVSS
VL: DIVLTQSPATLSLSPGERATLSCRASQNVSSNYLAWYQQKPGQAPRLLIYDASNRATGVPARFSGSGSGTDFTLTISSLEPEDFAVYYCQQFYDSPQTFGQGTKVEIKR
notes: as for B1
B12: TP-3C2 (Fab, V domains shown)
VH: QVQLQQSGPGLVKPSQTLSLTCAISGDSVSSSSAAWSWIRQSPGRGLEWLGMIYYRSKWYNHYAVSVKSRITINPDTSKNQFSLQLNSVTPEDTAVYYCARGGSGVMDVWGQGTLVTVSS
VL: DIQMTQSPSSLSASVGDRVTITCRASQSITNYLNWYQQKPGKAPKLLIYDVSNLQSGVPSRFSGSGSGTDFTLTISSLQPEDFAVYYCQQYSGYPLTFGQGTKVEIKR
notes: as for B1
B13: TP-2G2 (Fab, V domains shown)
VH: QVQLVESGGGLVQPGGSLRLSCAASGFTFSSYAMNWVRQAPGKGLEWVSAILSDGSSTSYADSVKGRFTISRDNSKNTLYLQMNSLRAEDTAVYYCARYPDWGWYTDVWGQGTLVTVSS
VL: DIELTQPPSVSVAPGQTARISCSGDNIRKFYVHWYQQKPGQAPVLVIYGTNKRPSGIPERFSGSNSGNTATLTISGTQAEDEADYYCQSYDSKFNTVFGGGTKLTVLG
notes: as for B1
B14: TP-2A2 (Fab, V domains shown)
VH: QVQLVESGGGLVQPGGSLRLSCAASGFTFSNNAMNWVRQAPGKGLEWVSTISYDGSNTYYADSVKGRFTISRDNSKNTLYLQMNSLRAEDTAVYYCARQAGGWTYSYTDVWGQGTLVTVSS
VL: DIELTQPPSVSVAPGQTARISCSGDNIRTYYVHWYQQKPGQAPVVVIYGDSKRPSGIPERFSGSNSGNTATLTISGTQAEDEADYYCQSYDSEADSEVFGGGTKLTVLG
notes: as for B1
B15: TP-2G7 (Fab, V domains shown)
VH: QVQLVESGGGLVQPGGSLRLSCAASGFTFNSYAMSWVRQAPGKGLEWVSNISSNSSNTYYADSVKGRFTISRDNSKNTLYLQMNSLRAEDTAVYYCARKGGGEHGFFPSDIWGQGTLVTVSS
VL: DIELTQPPSVSVAPGQTARISCSGDNLGTYYVHWYQQKPGQAPVLVIYGDNNRPSGIPERFSGSNSGNTATLTISGTQAEDEADYYCQTYDSNNESIVFGGGTKLTVLG
notes: as for B1
B16: TP-3E1 (Fab, V domains shown)
VH: QVQLVESGGGLVQPGGSLRLSCAASGFTFSNYAMTWVRQAPGKGLEWVSVISSVGSNTYYADSVKGRFTISRDNSKNTLYLQMNSLRAEDTAVYYCARPTKAGRTWWWGPYMDVWGQGTLVTVSS
VL: DIELTQPPSVSVAPGQTARISCSGDNIGSYYAYWYQQKPGQAPVLVIYDDSNRPSGIPERFSGSNSGNTATLTISGTQAEDEADYYCQSYDSTGLLVFGGGTKLTVLG
notes: as for B1
B17: TP-2F9 (Fab, V domains shown)
VH: QVQLVESGGGLVQPGGSLRLSCAASGFTFYKYAMHWVRQAPGKGLEWVSGIQYDGSYTYYADSVKGRFTISRDNSKNTLYLQMNSLRAEDTAVYYCARYYCKCVDLWGQGTLVTVSS
VL: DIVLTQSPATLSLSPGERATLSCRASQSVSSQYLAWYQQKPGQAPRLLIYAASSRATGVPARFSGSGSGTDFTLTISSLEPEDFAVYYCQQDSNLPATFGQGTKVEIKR
notes: as for B1
B18: TP-2C1 (Fab, V domains shown)
VH: QVQLVESGGGLVQPGGSLRLSCAASGFTFSPYVMSWVRQAPGKGLEWVSSISSSSSNTYYADSVKGRFTISRDNSKNTLYLQMNSLRAEDTAVYYCARGDSYMYDVWGQGTLVTVSS
VL: DIELTQPPSVSVAPGQTARISCSGDSIGSYYAHWYQQKPGQAPVLVIYYDSKRPSGIPERFSGSNSGNTATLTISGTQAEDEADYYCQAYTGQSISRVFGGGTKLTVLG
notes: as for B1
B19: TP-3A3 (Fab, V domains shown)
VH: QVQLVESGGGLVQPGGSLRLSCAASGFTFNNNAISWVRQAPGKGLEWVSAINSSSSSTSYADSVKGRFTISRDNSKNTLYLQMNSLRAEDTAVYYCARGHHRGHSWASFIDYWGQGTLVTVSS
VL: DIELTQPPSVSVAPGQTARISCSGDNIGSKYVHWYQQKPGQAPVVVIYEDSDRPSGIPERFSGSNSGNTATLTISGTQAEDEADYYCQSWDKSEGYVFGGGTKLTVLG
notes: as for B1
B20: TP-2D7 (Fab, V domains shown)
VH: QVQLQQSGPGLVKPSQTLSLTCAISGDSVSSNSAAWGWIRQSPGRGLEWLGLIYYRSKWYNDYAVSVKSRITINPDTSKNQFSLQLNSVTPEDTAVYYCARFGDTNRNGTDVWGQGTLVTVSS
VL: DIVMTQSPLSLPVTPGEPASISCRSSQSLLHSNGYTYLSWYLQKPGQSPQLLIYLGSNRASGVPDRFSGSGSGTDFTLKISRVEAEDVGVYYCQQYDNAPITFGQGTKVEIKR
notes: as for B1
B21: TP-3C3 (Fab, V domains shown)
VH: QVQLQQSGPGLVKPSQTLSLTCAISGDSVSSNSAAWGWIRQSPGRGLEWLGVIYYRSKWYNDYAVSVKSRITINPDTSKNQFSLQLNSVTPEDTAVYYCARARAKKSGGFDYWGQGTLVTVSS
VL: DIQMTQSPSSLSASVGDRVTITCRASQSINPYLNWYQQKPGKAPKLLIYAASNLQSGVPSRFSGSGSGTDFTLTISSLQPEDFAVYYCQQLDNRSITFGQGTKVEIKR
notes: as for B1

target: T1, ヒトTFPI (human tissue factor pathway …); experiment: ELISA, Fab in bacterial lysate on coated human TFPI

Binding result, binds:
B1, B2, B3, B4, B5, B6, B7, B8, B9, B10, B11, B12, B13, B14, B15, B16, B17, B18, B19, B20, B21
